Measured values from patent US20210054094A1 (Hoffmann-La Roche, published 2021).
Read-outs that look alike come from different tables or passages of the source. One block for each binder: values may come before it.

Assays:
Experiment in all cases: cell-based or functional assay
[1] = target: T1, human GPRC5D (human, UniProt Q9NZD1 1-345)
[2] = target: T1, human GPRC5D; remark: listed apart in the source
[3] = target: T1, human GPRC5D; remark: listed apart in the source

T1 sequence (Q9NZD1 whole entry): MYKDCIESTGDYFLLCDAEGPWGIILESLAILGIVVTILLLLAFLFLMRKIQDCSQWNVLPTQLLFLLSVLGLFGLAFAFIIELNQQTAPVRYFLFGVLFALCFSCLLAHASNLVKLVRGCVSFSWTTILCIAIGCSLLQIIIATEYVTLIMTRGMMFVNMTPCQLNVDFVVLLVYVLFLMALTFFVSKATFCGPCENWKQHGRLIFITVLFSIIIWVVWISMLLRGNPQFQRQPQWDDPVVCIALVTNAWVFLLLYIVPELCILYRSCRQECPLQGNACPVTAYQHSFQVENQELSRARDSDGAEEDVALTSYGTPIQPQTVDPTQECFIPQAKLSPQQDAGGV

CAR-J2 EC50 (PGLALA-CAR-J activation, L363 target cells) [2]: 0.0157 µg/mL
B3: P1AE5759 (antibody, V domains shown)
VH: EVQLVESGGGLVQPGGSLRLSCAASGFSFSNYGMAWVRQAPGKGLEWVASISTGGGNTYYRDSVKGRFTISRDNAKNTLYLQMNSLRAEDTAVYYCTRHDRGGLYWGQGTMVTVSS
VL: EIVLTQSPGTLSLSPGERATLSCRASKSLLHSNGITYVYWYQQKPGQAPRLLIYRMSNLASGIPDRFSGSGSGTDFTLTISRLEPEDFAVYHCGQLLENPYTFGQGTKLEIK

CAR-J2 EC50 (PGLALA-CAR-J activation, L363 target cells) [2]: 0.0782 µg/mL
B4: P1AE5764 (antibody, V domains shown)
VH: EVQLVESGGGLVQPGGSLRLSCAASGFSFSNYGMAWVRQAPGKGLEWVASISTGGGNTYYADSVKGRFTISRDNAKNTLYLQMNSLRAEDTAVYYCTRHDRGGLYWGQGTMVTVSS
VL: EIVLTQSPGTLSLSPGERATLSCRASKSLLHSNGITYVYWYQQKPGQAPRLLIYRMSNLASGIPDRFSGSGSGTDFTLTISRLEPEDFAVYHCGQLLENPYTFGQGTKLEIK

CAR-J2 EC50 (PGLALA-CAR-J activation, L363 target cells) [3]: 0.0769 µg/mL
B7: P1AE5713 (antibody, V domains shown)
VH: EVQLLESGGGLVQPGGSLRLSCAASGFTFSKYAMAWVRQAPGKGLEWVASISTGGVNTYYRDSVKARFTISRDNSKNTLYLQMNSLRAEDTAVYYCATHTGDYFDYWGQGTMVTVSS
VL: DIQMTQSPSSLSASVGDRVTITCRASQSVSISGINLMNWYQQKPGQQPKLLIYHASILASGVPSRFSGSGSGTDFTLTISSLQPEDFATYYCQQTRESPLTFGQGTRLEIK

CAR-J2 EC50 (PGLALA-CAR-J activation, L363 target cells) [3]: 0.456 µg/mL
B8: P1AE5708 (antibody, V domains shown)
VH: EVQLLESGGGLVQPGGSLRLSCAASGFTFSKYAMAWVRQAPGKGLEWVASISTGGVNTYYRDSVKARFTISRDNSKNTLYLQMNSLRAEDTAVYYCATHTGDYFDYWGQGTMVTVSS
VL: DIVMTQSPDSLAVSLGERATINCKSSQSVSISGINLMNWYQQKPGQQPKLLIYHASILASGVPDRFSGSGSGTDFTLTISSLQAEDVAVYYCQQTRESPLTFGQGTRLEIK

CAR-J2 EC50 (PGLALA-CAR-J activation, L363 target cells) [2]: 0.00265 µg/mL
B9: P1AE5733 (antibody, V domains shown)
VH: EVQLVESGGGLVQPGRSLKLSCAASGFSFSNYGMAWVRQAATKGLEWVASISTGGGNTYYRDSVKGRFIVSRDNAKNTQYLQMDSLRSEDTATYYCTRHDRGGLYWGQGVMVTVSS
VL: DIVMTQAPLSVSVTPGESASISCRSSKSLLHSNGITYVYWYFQKPGKSPQVLIYRMSNLASGVPDRFSGSGSETDFTLKISRVEAEDVGIYHCGQLLENPYTFGAGTELELK

Continued, binder first:

B1: 10B10-TCB (bispecific antibody)
light 1: DIQLTQSPHSLSASLGETVSIECLASEGISNYLAWFHQKPGKSPQLLIYYASSLQDGVPSRFSGSGSGTQYSLKISNMQPEDEGVYYCQQGYKYPLTFGSGTKLEIKRTVAAPSVFIFPPSDRKLKSGTASVVCLLNNFYPREAKVQWKVDNALQSGNSQESVTEQDSKDSTYSLSSTLTLSKADYEKHKVYACEVTHQGLSSPVTKSFNRGEC
light 2: EVQLLESGGGLVQPGGSLRLSCAASGFTFSTYAMNWVRQAPGKGLEWVSRIRSKYNNYATYYADSVKGRFTISRDDSKNTLYLQMNSLRAEDTAVYYCVRHGNFGNSYVSWFAYWGQGTLVTVSSASVAAPSVFIFPPSDEQLKSGTASVVCLLNNFYPREAKVQWKVDNALQSGNSQESVTEQDSKDSTYSLSSTLTLSKADYEKHKVYACEVTHQGLSSPVTKSFNRGEC
heavy 1: EVQLVESGGGLVQPGRSMKLSCAASGFTFTNFYMAWVRQAPTKALEWVASINTGGGYTYYRDSVKGRFTVSRDNTRSTLYLQMDSLRSEETATYYCARHLTYYGRYYYFDYWGQGVMVTVSSASTKGPSVFPLAPSSKSTSGGTAALGCLVEDYFPEPVTVSWNSGALTSGVHTFPAVLQSSGLYSLSSVVTVPSSSLGTQTYICNVNHKPSNTKVDEKVEPKSCDKTHTCPPCPAPEAAGGPSVFLFPPKPKDTLMISRTPEVTCVVVDVSHEDPEVKFNWYVDGVEVHNAKTKPREEQYNSTYRVVSVLTVLHQDWLNGKEYKCKVSNKALGAPIEKTISKAKGQPREPQVCTLPPSRDELTKNQVSLSCAVKGFYPSDIAVEWESNGQPENNYKTTPPVLDSDGSFFLVSKLTVDKSRWQQGNVFSCSVMHEALHNHYTQKSLSLSPGK
heavy 2: not shown
EC50 of in vitro killing, AMO-1 cells [1]: 0.084 nM
EC50 of in vitro killing, EJM cells [1]: 0.079 nM
EC50 of in vitro killing, L363 cells [1]: 0.034 nM
EC50 of in vitro killing, MOLP-2 cells [1]: 0.16 nM
EC50 of in vitro killing, NCI-H929 cells [1]: 0.056 nM
EC50 of in vitro killing, OPM-2 cells [1]: 0.028 nM
EC50 of in vitro killing, RPMI cells [1]: 0.965 nM

B2: B72-TCB (bispecific antibody, human IgG1, kappa, L234A L235A)
heavy 1: not shown
light 1: EVQLVESGGGLVQPGGSLRLSCAASGFTFNTYAMNWVRQAPGKGLEWVARIRSKYNNYATYYAASVKGRFTISRDDSKNSLYLQMNSLKTEDTAVYYCARHGNFGNSYVSWFAYWGQGTLVTVSSASVAAPSVFIFPPSDEQLKSGTASVVCLLNNFYPREAKVQWKVDNALQSGNSQESVTEQDSKDSTYSLSSTLTLSKADYEKHKVYACEVTHQGLSSPVTKSFNRGEC
heavy 2: QVQLVQSGAEVKKPGASVKVSCKASGYSFTGYTMNWVRQAPGQGLEWMGLINPYNSDTNYAQKLQGRVTMTTDTSTSTAYMELRSLRSDDTAVYYCARVALRVALDYWGQGTLVTVSSASTKGPSVFPLAPSSKSTSGGTAALGCLVEDYFPEPVTVSWNSGALTSGVHTFPAVLQSSGLYSLSSVVTVPSSSLGTQTYICNVNHKPSNTKVDEKVEPKSCDKTHTCPPCPAPEAAGGPSVFLFPPKPKDTLMISRTPEVTCVVVDVSHEDPEVKFNWYVDGVEVHNAKTKPREEQYNSTYRVVSVLTVLHQDWLNGKEYKCKVSNKALGAPIEKTISKAKGQPREPQVCTLPPSRDELTKNQVSLSCAVKGFYPSDIAVEWESNGQPENNYKTTPPVLDSDGSFFLVSKLTVDKSRWQQGNVFSCSVMHEALHNHYTQKSLSLSPGK
light 2: DIQMTQSPSSLSASVGDRVTITCKASQNVATHVGWYQQKPGKAPKRLIYSASYRYSGVPSRFSGSGSGTEFTLTISNLQPEDFATYYCQQYNRYPYTFGQGTKLEIKRTVAAPSVFIFPPSDRKLKSGTASVVCLLNNFYPREAKVQWKVDNALQSGNSQESVTEQDSKDSTYSLSSTLTLSKADYEKHKVYACEVTHQGLSSPVTKSFNRGEC
EC50 of in vitro killing, AMO-1 cells [1]: 0.109 nM
EC50 of in vitro killing, EJM cells [1]: 0.06 nM
EC50 of in vitro killing, L363 cells [1]: 0.058 nM
EC50 of in vitro killing, MOLP-2 cells [1]: 0.124 nM
EC50 of in vitro killing, NCI-H929 cells [1]: 0.058 nM
EC50 of in vitro killing, OPM-2 cells [1]: 0.171 nM
EC50 of in vitro killing, RPMI cells [1]: 0.193 nM

B5: P1AE5706 (antibody, V domains shown)
VH: ELQLEQSGGGLVQPGGSLTLSCAASGFTFSKYAMAWVRQAPTKGLEWVASISTGGVNTYYRDSVKARFTISRDNAKNTQYLQMDSLRSEDTATYYCATHTGDYFDYWGQGVMVTVSS
VL: DIVLTQSPALAVSPGQRATISCRASQSVSISGINLMNWYQQKPGQQPKLLIYHASILASGIPTRFSGSGSGTDFTLTIDPVQADDIATYYCQQTRESPLTFGSGTNLEIK
CAR-J2 EC50 (PGLALA-CAR-J activation, L363 target cells) [3]: 0.0039 µg/mL

B6: P1AE5707 (antibody, V domains shown)
VH: EVQLLESGGGLVQPGGSLRLSCAASGFTFSKYAMAWVRQAPGKGLEWVASISTGGVNTYYRDSVKARFTISRDNSKNTLYLQMNSLRAEDTAVYYCATHTGDYFDYWGQGTMVTVSS
VL: DIVMTQSPDSLAVSLGERATINCRASQSVSISGINLMNWYQQKPGQQPKLLIYHASILASGVPDRFSGSGSGTDFTLTISSLQAEDVAVYYCQQTRESPLTFGQGTRLEIK
CAR-J2 EC50 (PGLALA-CAR-J activation, L363 target cells) [3]: 0.0424 µg/mL
